Source: US20150306254A1 (REGENTS OF THE UNIVERSITY OF COLORADO A BODY CORPORATE, published 2015)

Experiments:
recombinant murine C3d = molecular target: T1, recombinant murine C3d (murine, UniProt P01027 996-1303, limits assumed); experiment: direct ELISA
T1 construct: domain: C3d; also called mouse C3d
Protocol: To confirm that the antibodies reacted with C3d and not with a contaminant in the immunogen, the antibodies were tested against the C3d using a sandwich ELISA in which the recombinant C3d was captured with a polyclonal anti-C3d capture antibody (Table 2). To test reactivity of the clones against murine C3d we performed indirect and sandwich ELISAs using recombinant murine C3d. We also performed direct ELISAs to test binding of the antibodies to recombinant human C3d from a second construct, purified human C3d, and to recombinant cynomologous C3d.
To assess reactivity of antibodies against C3d, ELISAs were performed using purified forms of C3 activation fragments from several different sources (see Reagents section above). Direct ELISAs were performed by affixing 30-50 ng of the C3 fragment to the ELISA plate overnight at 4° C. The plates were blocked with 1% bovine serum albumin in PBS for 2 hours at room temperature. Bound antibodies were then detected with HRP-conjugated anti-mouse IgG (MP Biomedicals, Solon, Ohio). Sandwich ELISAs were performed by incubating polyclonal anti-human C3d antibody (Dako USA, Carpinteria, Calif.) to the ELISA plates in order to capture the C3d. Binding of the antibodies to the captured C3d was then detected as above.

[1] = molecular target: T2, C3d, source and species not stated; experiment: radiolabeled antibody; method and antigen not stated
T2 construct: domain: C3d; also called 3d antigen; target C3d antigen

recombinant human C3d = molecular target: T3, recombinant human C3d (human, UniProt P01024 996-1303, limits assumed); experiment: SPR, recombinant human C3d fixed to a CM5 chip
T3 construct: domain: C3d; also called wild-type C3d; the C3d immunogen
Protocol: FIGS. 12A-12C. […] Surface plasmon resonance was performed using recombinant human C3d fixed to a CM5 chip.
The affinity of clones 3d8b, 3d9, and 3d29 for C3d were tested by surface plasmon resonance (FIG. 12).

T1 sequence (P01027 996-1303 limits assumed): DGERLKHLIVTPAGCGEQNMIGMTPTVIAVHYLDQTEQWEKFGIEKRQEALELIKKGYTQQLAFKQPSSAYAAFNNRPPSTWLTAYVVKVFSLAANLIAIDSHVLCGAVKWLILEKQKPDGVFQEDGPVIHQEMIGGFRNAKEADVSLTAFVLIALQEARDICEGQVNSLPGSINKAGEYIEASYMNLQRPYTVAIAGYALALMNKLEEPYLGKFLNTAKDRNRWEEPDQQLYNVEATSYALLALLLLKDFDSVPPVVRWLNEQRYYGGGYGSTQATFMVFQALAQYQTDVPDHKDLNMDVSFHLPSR
T3 sequence (P01024 996-1303 limits assumed): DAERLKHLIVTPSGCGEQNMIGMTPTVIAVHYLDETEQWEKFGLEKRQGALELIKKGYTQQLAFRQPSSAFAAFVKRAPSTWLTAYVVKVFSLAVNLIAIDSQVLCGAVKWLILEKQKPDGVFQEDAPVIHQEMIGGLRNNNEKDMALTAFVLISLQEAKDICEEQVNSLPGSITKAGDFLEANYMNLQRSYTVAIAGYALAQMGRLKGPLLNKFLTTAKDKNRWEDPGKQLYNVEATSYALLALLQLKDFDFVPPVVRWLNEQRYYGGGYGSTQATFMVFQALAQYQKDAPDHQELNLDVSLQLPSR
T2 sequence (P01024 1002-1303): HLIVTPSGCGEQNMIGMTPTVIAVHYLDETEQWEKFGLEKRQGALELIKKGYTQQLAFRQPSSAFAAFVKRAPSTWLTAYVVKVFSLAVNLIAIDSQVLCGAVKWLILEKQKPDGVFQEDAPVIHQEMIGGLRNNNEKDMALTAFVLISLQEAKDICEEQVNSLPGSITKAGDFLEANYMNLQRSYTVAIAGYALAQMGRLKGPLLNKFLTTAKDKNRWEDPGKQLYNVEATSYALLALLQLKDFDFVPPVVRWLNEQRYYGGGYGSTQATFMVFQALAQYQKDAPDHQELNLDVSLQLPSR

B1: mouse monoclonal antibody 3d29 (antibody, mouse IgG2a, V domains shown)
VH: EVQLQQSGPVLVKPGASVKMSCKASGYTFTDYYMNWVKQSHGKSLEWIGVINPYNGGTSYNQKFKGKATLTVDKSSRTAYMELNSLTSEDSAVYYCSRGGPYWGQGTTLTVSS
VL: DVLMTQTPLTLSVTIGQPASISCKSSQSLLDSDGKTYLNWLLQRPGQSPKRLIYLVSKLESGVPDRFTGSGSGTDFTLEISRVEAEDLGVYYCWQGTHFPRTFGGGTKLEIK
notes: Mouse IgG2a/c (Group I clone); Also used FITC-labelled, biotinylated, radiolabeled and conjugated to SPIO nanoparticles; also called C3d29; 3d29a
binding result (recombinant murine C3d): binds | Kd [1]: 0.43 nM | Kd (recombinant human C3d): 1.06 nM
